Laboratory results: the DeepSol protein solubility set

Assay: soluble on expression in E. coli; label from the status in PepcDB or PDB records
In the case of “ADFDYVVVGAGNAGNVVAARLTEDPDVSVLVLEAGVSDENVLGAEAPLLAPGLVPNSIFDWNYTTTAQAGYNGRSIAYPRGRMLGGSSSVHYMVMMRGSTEDFDRYAAVTGDEGWNWDNIQQFVRKNEMVVPPADNHNTSGEFIPAVHGTNGSVSISLPGFPTPLDDRVLATTQEQSEEFFFNPDMGTGHPLGISWSIASVGNGQRSSSSTAYLRPAQSRPNLSVLINAQVTKLVNSGTTNGLPAFRCVEYAEQEGAPTTTVCAKKEVVLSAGSVGTPILLQLSGIGDENDLSSVGIDTIVNNPSVGRNLSDHLLLPAAFFVNSNQTFDNIFRDSSEFNVDLDQWTNTRTGPLTALIANHLAWLRLPSNSSIFQTFPDPAAGPNSAHWETIFSNQWFHPAIPRPDTGSFMSVTNALISPVARGDIKLATSNPFDKPLINPQYLSTEFDIFTMIQAVKSNLRFLSGQAWADFVIRPFDPRLRDPTDDAAIESYIRDNANTIFHPVGTASMSPRGASWGVVDPDLKVKGVDGLRIVDGSILPFAPNAHTQGPIYLVGKQGADLIKADQ”, the “soluble on expression in E. coli” value is reported as “soluble”. With “DEIVMDANAVLGPVDPQLGNFPAASILKVVKDKPIGEIDDQTLIMADLAGKAIQQVQRFVRTLLKDNIPKQKVNPENIESIIEALTTGRVTHDYPITVEEATEMGLPITVGLPRSIYELMDLYPQSQGGRPSVQYIPMPYDDRRPIL” the “soluble on expression in E. coli” value was “not soluble”. In the case of “HYPKALDQLSEDRGYAFSYPTAAPCERLVWSISQSLMEGKEINALFDRINSSTKRDMVTKVSPKAPHTVVLVLGESARPDYMHSYGYPLENTPRLDSLLASGAAVQFDDVVSAKPNTQGSIAAMMSIGESRAGGKWYDDPMLIPLLRSAGYYTFWLSAQEKLGFAVQNVTAIAKLSDSTLFVFRGMDDVVLPNLMQRAEYQNLFEVVHLSGSHVSYQDRYPSEFGKFTSENLPSHHDESKDAVVAHYVNSLYYTDYILGEIERKYANEDAIIIYLSDHGQVLYDAPNNPNLVGHSFSQQGVSIPLFIYLSPSMRTKYPELIPRLQSIRSRRIMTDVLPYAIMGLLGIESPLYNPELDFWGTGYDEHRPRVIYSDDSSLVID”, the “soluble on expression in E. coli” value is reported as “not soluble”. With “MGSDKIHHHHHHEELEYKGMNTLQISNVDDLISFYQYADDRIPLISGHRGGRGKGYPENSMETFENTLSYTPATFEIDPRLTKDSVIVLFHDDTLERTSNGTGKVSDYTWEELQNFRLKDPEGNITNYRIPTLEEAIRWARGKTILILDKKDVPMERTAQLITDMQAEPYVMITVHDGASARFFYEKNPNFMFEAFVKTKEAVQDYEDNGIPWSHIMAYVGPKITPEVREVIDMLHERGVMCMISTAPSDDKLSTPESRAEAYRMIIRQGVDIIESDRPIEVAEAISSLIPVSSSKGKFFSTL” the “soluble on expression in E. coli” value was “not soluble”. With “MIAITGATGQLGHYIIESLMKTVPASQIVAIVRNPAKAQALAAQGITVRQADYSDEAALTSALQGVEKLLLISSSEVGQRAPQHRNVINAAKAAGVKFIAYTSLLHADTSPLGLADEHIETEKMLADSGIVYTLLRNGWYSENYLASAPAALEHGVFIGAAGDGKIASATRADYATAAARVISEAGHEGKVYELAGDSAWTLTQLAAELTKQSGKQVTYQNLSEADFAAALKSVGLPDGLADMLADSDVGASKGGLFDNSKTLSKLIGCPTTTLAESVSHLFNVNN” the “soluble on expression in E. coli” value was “not soluble”. In the case of “MGSDKIHHHHHHMSRDKTLFVCQECGSISNKWLGRCPDCGAWNSFVEQRVEKTVAKSQTTYATASPPQFLHAVPITDVGRSTTGLAELDRVLGGGQVPGAAILLGGEPGIGKSTLLLQTAHHLAQVSKVLYVTGEESAAQVALRAQRLGLGRSPVRVVAENHLEAIEGLLRGEQPALVLVDSIQTVYTDTLQSAPGSVAQVRECAARLVRFAKATGTTVWLVGHVTKEGAIAGPRVLEHMVDTVLYFEGEAGSPYRIVRAIKNRFGAANELGVFQMHEEGLSEVANPSQLFLSQHERPVAGSVVLATQEGTRPLLVEVQALVTPSPLANPRRVAIGLDPNRLSLLLAILHRHGDSMFFDQDVFVNIAGGIKVNEPAADLAVALALVSSFRNKPLEGRRVVFGELGLAGEVRPVAGTEARVREAVKLGFKGAILPRSDKISAAATFKLHPAGRLGDAMEAAFAAE”, the “soluble on expression in E. coli” value is reported as “not soluble”. In the case of “SSQQIYGVKYGNVTFHVPSNQPLKEVLWKKQKDKVAELENSEFRAFSSFKNRVYLDTKSGSLTIYNLTSSDEDEYEMESPNITDSMKFFLYVGES”, the “soluble on expression in E. coli” value is reported as “soluble”. For “PAMADTIKLRIIETTDIHTNVMDYDYYKDQPSQQIGLSRAATLVKQAKSEVENSVLVDNGDLIQGSPMGDYMAAKGIQTGEVHPVYKAMNQLHYDVGNIGNHEFNYGLDFLQNTLAGANFPYINANVFDKKTGEHYFQPYLIKTHSFKDTDGEVHQVKVGYIGFVPPQIMVWDKKNLEGNVVAKDIKETAEKLIPQMKKEGADIIVAIPHSGVSTDPYKLGAENSVYYLTQVKGIDAIAFGHSHAVFPGKGFENLQGVDNNKGTINGVTAVMPGRWGSHVGVMDLVIEQKDGQWQVVEGQSEARPIFDKAAKKSLAEADQCIIRALEDDHKGTREFVNQ”, the “soluble on expression in E. coli” value was “not soluble”. With “KEQILSSEQLARKMMLELGDKKQEHLVAIYMDTQNRIIEQRTIFIGTVRRSVAEPREILHYACKNMATSLIIIHNHPSGSPKPSESDLSFTKKIKRSCDHLGIVCLDHIIVGKNKYYSFREEADI” the “soluble on expression in E. coli” value was “not soluble”. For “SLTTLTVRVFTTAEIIYRKTVIALVCHLNCSRQETVTMNKTITALAIMMASFAANASVLPETPVPFKSGTGAIDNDTVYIGLGSAGTAWYKLDTQAKDKKWTALAAFPGGPRDQATSAFIDGNLYVFGGIGKNSEGLTQVFNDVHKYNPKTNSWVKLMSHAPMGMAGHVTFVHNGKAYVTGGVNQNIFNGYFEDLNEAGKDSTAIDKINAHYFDKKAEDYFFNKFLLSFDPSTQQWSYAGESPWYGTAGAAVVNKGDKTWLINGEAKPGLRTDAVFELDFTGNNLKWNKLAPVSSPDGVAGGFAGISNDSLIFAGGAGFKGSRENYQNGKNYAHEGLKKSYSTDIHLWHNGKWDKSGELSQGRAYGVSLPWNNSLLIIGGETAGGKAVTDSVLITVKDNKVTVQN”, the “soluble on expression in E. coli” value was “not soluble”. For “MSLYKVYGDYRSGNCYKIKLMLNLLGLPYEWQAVDILGGDTQTEAFLAKNPNGKIPVLELEDGTCLWESNAILNFLADGSQFLPSEPRLRTQVLQWQFFEQYSHEPYIAVARFIQLYEGLPEERREEYLKLHKRGYKALDVMEKQLSRTPYLVGEHYSIADIALYAYTHVADEGGFDLSRYPGIQAWMQRVQSHPRHVPMLDEGHHHHHH”, the “soluble on expression in E. coli” value was “soluble”. In the case of “MQRHTLPLRPLLGTLLLGLLLAGCDASRDDATALGPVPIASGDECHVCGMLIEEMPGPKGESVLPGAVRKFCSTAELFGWWLQPENRQGQARLYVHDMSQADWRHPDDARLIDATRAYYVVGIQRPGGMGATLASFADEEAATRLAAEEGGRVLRFDEIDQAVLQGVGGDHPHRHPAH”, the “soluble on expression in E. coli” value is reported as “not soluble”. In the case of “MSLKKKLLLMVSVLAVLFVAAACSSKPEAKINTEPYSDRQTMLGTYVQIRIYDDGKEDVLPKAFARVKELGDKITVNQPGSEIDEINQEAGVKPVKVSDDLYPLLKKAYEYSKDSRGGFDMAIGPITSMWHIGFDDARKPSQAEIDQALKLVDYTKVKFNDKEQTVYLEEKGMQLDLGAIAKGFITDEVVKVLKDNGVTTAIVDLGGNVYVLGHSPRGKDMDWTVGIQDPNKARNTVLGQVKESNKTLVTSGIYERYLKVDGKTYHHLFDRETGYPFDNDIAGVTIITDKSIDGDGLSTAVFSMGVKKGLEYVESLKGTDAIFVTKDDKVYISKDIEGNFEIGKDSGYTMGNRADLKEGGSHHHHHH”, the “soluble on expression in E. coli” value is reported as “soluble”. For “MLKINYPIKGACQCGQVTYQLLAAPLMVAACHCRECQKLSTSAFSITAVVNATDVVFSGEMSDWSRLADNGNTNGAKFCPCCGNRIYHFNPNFPDKIKLKPSTLEDTRVIQPTMHIWTSEKQAWFKLPLDLPSHEKQPF”, the “soluble on expression in E. coli” value was “not soluble”. For “MLFDTHAHLNAVQYEEDLEQVIERARDEGVSHIVVVGFDRPTIDRAIELAERYPFIYAAVGWHPVDAIEMTDDDLQMIEQLAAHPKVVALGEMGLDYHWDKSPKDVQQEVFRQQIRLAKKVKLPIIIHNREATADILKILQEENAAEVGGIMHCFSGSVEVAKQCMDMNFLISLGGPVTFKNAKKPKEVAKEIPLSHLLIETDCPYLTPHPFRGKRNEPSYVKYVAEAIAQIKNISFAEVAETTAENAKKLFAIDR”, the “soluble on expression in E. coli” value was “not soluble”.
